# Assay results as given in publication PMC9482650, “Quantitative fragmentomics allow affinity mapping of interactomes” (Nature Communications, 2022).
# Columns and labels:
# [1] = biological target: DLG4_1, P78352; assay: holdup assay; design: key: below the threshold = too weak to quantify, mostly under pKd 3.1 to 4
# [2] = biological target: GRID2IP_2, A4D2P6; assay: holdup assay; design: key: below the threshold = too weak to quantify, mostly under pKd 3.1 to 4
# [3] = plain residues with an end cap or a label only (N-terminal biotin on a linker: ado-ado)
# [4] = modified: phospho on T at position -2 from the C-terminal residue
# DLG4_1, P78352, sequence (P78352 62-152): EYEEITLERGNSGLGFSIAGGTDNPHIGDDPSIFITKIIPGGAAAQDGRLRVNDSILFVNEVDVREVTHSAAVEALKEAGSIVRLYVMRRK
# GRID2IP_2, A4D2P6, sequence (A4D2P6 272-370): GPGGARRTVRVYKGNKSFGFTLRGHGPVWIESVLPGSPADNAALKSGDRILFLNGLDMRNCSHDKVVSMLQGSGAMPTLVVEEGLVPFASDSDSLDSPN
Binder,"pKd [1, 3]","pKd [2, 3]","pKd [1, 4]","pKd [2, 4]"
"DTTVPESEDL [MYOZ2, Q9NPC6]",below the threshold,below the threshold,,
"PDGQCTVTEV [RNF146, Q9NTX7]",4.6,4.17,,
"GQEEQVTTRL [TRPC5, Q9UL62]",below the threshold,4.44,,
"RKPKPSSSCC [RAB9A, P51151]",below the threshold,3.54,,
"MLSKQSESAI [FLVCR1, Q9Y5Y0]",below the threshold,below the threshold,,
"DDEDRLVIEI [ZNF831, Q5JPB2]",below the threshold,below the threshold,,
"EVEEFPETSV [TRPV3, Q8NET8]",4.36,4.39,,
"SAAKVLTSMC [GHRHR, Q02643]",below the threshold,4.38,,
"LSEFKAMDSI [CTNNA1, P35221]",below the threshold,below the threshold,,
"SKENVQETQI [LRRC4B, Q9NT99]",4.02,3.86,,
"QMNQTLPVQV [EPHB3, P54753]",below the threshold,3.58,,
"QKNRKAQEDL [CES3, Q6UWW8]",below the threshold,below the threshold,,
"SGSLKLMTTV [DACT1, Q9NYF0]",5.02,3.97,,
"PEYLGLDVPV [ERBB2, P04626]",below the threshold,below the threshold,,
"ETQVTAETVI [TMEM225B, P0DP42]",3.6,below the threshold,,
"LPHPHSTTRV [NLGN2, Q8NFZ4]",below the threshold,3.63,,
"EVNETDDTKM [KCNJ1, P48048]",below the threshold,below the threshold,,
"QSLNRMEYIV [JAG1, P78504]",below the threshold,below the threshold,,
"KSGKQTMLVV [TRIM29, Q14134;Q14134-2]",,below the threshold,,
"DDPSTAETVL [ABCA7, Q8IZY2]",below the threshold,below the threshold,,

Binder,"pKd [1, 3]","pKd [2, 3]","pKd [1, 4]","pKd [2, 4]"
"LPHGHSTTRV [NLGN4X, Q8N0W4]",3.51,3.84,,
"NHSSSPETTA [TRMT13, Q9NUP7]",below the threshold,below the threshold,,
"PAPSSGKDYV [CLDN1, O95832]",3.6,below the threshold,,
"YRLAQESGLV [ABCC6, O95255]",below the threshold,below the threshold,,
"SKSNFGSEPL [KIF17, Q9P2E2]",below the threshold,below the threshold,,
"QGLAERISVL [PRKD2, Q9BZL6]",below the threshold,4.81,,
"RLQRRRETQV [HPV18-E6_-2P, P06463]",,,below the threshold,below the threshold
"TPPAAKKSRI [BAZ1A, Q9NRL2]",below the threshold,4.42,,
"SAKVRTVTSV [RASL11B, Q9BPW5]",4.65,4.2,,
"AKPSRISTVV [IQSEC2, Q5JU85]",4.82,3.77,,
"VNKSKLLTDV [KCNA1, Q09470]",4.08,3.71,,
"HSGYRLNDYV [CLDN14, O95500]",below the threshold,3.63,,
"TASPAKETSF [SLC2A7, Q6PXP3]",below the threshold,below the threshold,,
"TSSMRGMDAV [RSRC2, Q7L4I2]",3.49,below the threshold,,
"KKMPSIESDV [GRIN2A, Q12879]",4.71,3.59,,
"YYKRPVQEWV [MMP24, Q9Y5R2]",below the threshold,3.89,,
"LKVPPEERLI [CRB2, Q5IJ48]",below the threshold,below the threshold,,
"PKRSFIESNV [TANC1, Q9C0D5]",4.73,3.53,,
"RHGSCVETSL [TMEM151B, Q8IW70]",3.98,4.36,,
"DDENIRTSDV [PLEKHA2, Q9HB19]",3.69,4.19,,

Binder,"pKd [1, 3]","pKd [2, 3]","pKd [1, 4]","pKd [2, 4]"
"VRNLPESEEL [MYOZ3, Q8TDC0]",below the threshold,below the threshold,,
"TLPRKRMSSI [GPRC6A, Q5T6X5]",below the threshold,3.87,,
"VDSTVKVWTC [TRAF7, Q6Q0C0]",below the threshold,below the threshold,,
"IPLDGETEEL [MYOZ1, Q9NP98]",below the threshold,below the threshold,,
"HLRARKSEWV [GJD4, Q96KN9]",below the threshold,3.89,,
"GNSVLKSTQF [SLC22A12, Q96S37]",below the threshold,below the threshold,,
"PRISRSQSEL [CCDC134, Q9H6E4]",below the threshold,3.61,,
"SNAGNTATKA [NOSTRIN, Q8IVI9]",below the threshold,below the threshold,,
"QPCFNKLFPL [LPXN, O60711]",below the threshold,below the threshold,,
"SSALYGESDL [ACTN2, P35609]",below the threshold,below the threshold,,
"VYPNAKVELV [PDLIM4_iso2, P50479;P50479-1]",below the threshold,below the threshold,,
"YLEPVLSSEL [ATP2A2, P16615;P16615-3]",below the threshold,4.22,,
"TACCHSETVV [TGFA, P01135]",4.75,below the threshold,,
"LPAHHNATRL [SLC34A1, Q06495;Q06495-1]",,4.13,,
"QSARLWETSI [ADAM22, Q9P0K1]",3.92,4.3,,
"QSPANIYYKV [EFNB1, P52799]",below the threshold,below the threshold,,
"TSQESEDTYL [TBC1D10A, Q9BXI6]",below the threshold,below the threshold,,
"QHKTQLQTLI [BPIFA2, Q96DR5]",4.38,3.93,,
"NLSIEKETKL [ASNSD1, Q9NWL6]",below the threshold,4.26,,
